Measurements reported in patent US20020193327A1.

Target: protein receptor on Chang C cells (human)
Assay: 125I-labeled virions on Chang C cells pretreated with 10 µg/ml trypsin, subtilisin, proteinase K or bromelain

Wild-type Ad37 (adenovirus type 37) particles
percent inhibition of specific binding after protease pretreatment of the cells: 50%
